{"source": "paper PMC9110426", "about": "“Cooperative regulation of PBI1 and MAPKs controls WRKY45 transcription factor in rice immunity”", "binders": {"B1": {"name": "DFA promoter W-box probe (dsDNA)", "DNA 1": "AGTTGGCAAAAGCTAAGTACAAGTCATTGTGTGGTCAATTGATCGACTGATCTGTTGCTC", "DNA 2": "GAGCAACAGATCAGTCGATCAATTGACCACACAATGACTTGTACTTAGCTTTTGCCAACT"}}, "biological_target": "T1, Myc-WRKY45 (Oryza sativa (rice), UniProt Q5W6D6 1-326)", "T1 sequence": "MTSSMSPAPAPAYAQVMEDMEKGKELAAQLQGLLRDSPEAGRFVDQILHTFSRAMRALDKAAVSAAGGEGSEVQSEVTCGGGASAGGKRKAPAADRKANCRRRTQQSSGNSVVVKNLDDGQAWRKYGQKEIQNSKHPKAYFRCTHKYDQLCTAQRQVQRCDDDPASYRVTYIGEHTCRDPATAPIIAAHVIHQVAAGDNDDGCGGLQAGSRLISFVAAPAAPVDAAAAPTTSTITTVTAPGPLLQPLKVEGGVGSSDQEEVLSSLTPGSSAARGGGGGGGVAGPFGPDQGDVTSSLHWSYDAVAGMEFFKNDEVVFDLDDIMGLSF", "test": "EMSA; 10 uM ZnCl2; poly(dI-dC); suppressed by excess unlabeled probe (40-fold in Methods, 50-fold in Supplementary Fig. 10c); 25 mM HEPES-KOH pH 7.6, 40 mM KCl, 0.1% Nonidet P-40, 10 uM ZnCl2, 1 mg/mL BSA, 10% glycerol, 1 mM DTT, 0.15 ug poly(dI-dC); 25 min at room temperature; 6% PAGE in Tris-borate at 4 C", "details": "protein: ivt; tags: Myc; blunt", "data": [{"binder": "B1", "values": [{"measurement": "binding result", "result": "binds"}]}]}
